Biological target: T1, recombinant human MFAP4 (microfibrillar-associated protein 4) (human, UniProt P55083 22-255)
T1 construct: It was coated on plates or filters at 10 µg/ml and also served as the ELISA standard; also called rhMFAP4; hrMFAP4
T1 sequence (looked up): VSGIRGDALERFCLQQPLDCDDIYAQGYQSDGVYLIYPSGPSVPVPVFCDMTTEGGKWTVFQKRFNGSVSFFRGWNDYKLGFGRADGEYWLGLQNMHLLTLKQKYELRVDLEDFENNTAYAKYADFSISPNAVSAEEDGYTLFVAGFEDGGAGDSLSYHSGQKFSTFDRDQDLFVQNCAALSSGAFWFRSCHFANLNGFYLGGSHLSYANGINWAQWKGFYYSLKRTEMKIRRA
Test: sandwich ELISA, capture antibody coated at 1 µg/ml; rhMFAP4 as standard
Description: The next day, plates were washed and blocked with PBS/tween for 1h at room temperature. […] Then, plates were successively incubated with horseradish peroxidase (HRP)-conjugated streptavidin (1:2000, diluted in PBS/tween, Invitrogen) for half an hour at room temperature, O-phenylenediamine dihydrochloride (OPD) (0.4 mg/ml, H1009, Sigma) dissolved in HRP with 0.03% H₂O₂, for 15 min at room temperature in the dark. Finally, 100 μl/well of 1M H₂SO₄ was added to stop the color development. Optical density was read at 492 nm wavelength with 620 nm as reference using ELISA microplate reader.

binding result: binds
B1: HG Hyb 7-5 murine monoclonal antibody raised against human recombinant MFAP4 (antibody, mouse IgG1, V domains shown)
VH: EVQLQQSGPELVKPGASVKLSCKTSGYTFTSYDMNWVKQRPGQGLEWIGWIFPRDGSTKFNEKFKGKATLTVDTSSTTAYMELHSLTSEDSAVYFCARAEIFFDYGFDYWGQGTTLTVSS
VL: DIVMTQSTALMAASPGEKVTITCSVSSSISSSNLHWYQQKSETSPKSWIYGTSNLASGVPGRFSGSGSGTSYSLTISSVEAEDAATYYCQQWSSYPLTFGGGTKLEIK
notes: Used as the capture antibody in the ELISA for human MFAP4

— patent US20250282861A1 (SYDDANSK UNIVERSITET, published 2025)
